The assay addresses T1, hCMV glycoprotein H (gH) (human cytomegalovirus (Human …, UniProt Q6SW67 24-742)).
T1 construct: also called envelope glycoprotein H
T1 sequence: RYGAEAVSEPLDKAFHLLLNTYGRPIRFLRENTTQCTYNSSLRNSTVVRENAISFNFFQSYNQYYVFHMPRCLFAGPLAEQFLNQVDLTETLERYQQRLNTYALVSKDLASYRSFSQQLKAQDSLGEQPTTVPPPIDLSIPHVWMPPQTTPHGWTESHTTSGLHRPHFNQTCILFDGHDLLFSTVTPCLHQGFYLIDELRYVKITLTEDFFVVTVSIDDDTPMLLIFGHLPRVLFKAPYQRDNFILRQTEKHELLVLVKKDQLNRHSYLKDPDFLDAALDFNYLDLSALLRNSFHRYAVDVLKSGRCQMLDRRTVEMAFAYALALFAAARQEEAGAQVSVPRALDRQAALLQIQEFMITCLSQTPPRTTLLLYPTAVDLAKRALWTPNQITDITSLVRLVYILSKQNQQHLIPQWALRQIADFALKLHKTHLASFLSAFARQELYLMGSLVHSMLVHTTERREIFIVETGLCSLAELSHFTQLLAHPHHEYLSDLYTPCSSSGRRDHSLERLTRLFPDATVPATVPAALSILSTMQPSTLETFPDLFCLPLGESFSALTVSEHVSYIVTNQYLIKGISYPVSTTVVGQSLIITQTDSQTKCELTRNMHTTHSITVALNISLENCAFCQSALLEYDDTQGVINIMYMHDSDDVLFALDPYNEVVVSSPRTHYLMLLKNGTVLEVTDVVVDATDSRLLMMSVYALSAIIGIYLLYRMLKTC
The assay can be described thus: co-expression in HeLa cells, surface gH read by FACS with 3G16. A general note: In flow cytometry, cells or beads pass a laser one at a time.

B1: hCMV glycoprotein L (gL) (other)
chain: AAVSVAPTAAEKVPAECPELTRRCLLGEVFEGDKYESWLRPLVNVTGRDGPLSQLIRYRPVTPEAANSVLLDEAFLDTLALLYNNPDQLRALLTLLSSDTAPRWMTVMRGYSECGDGSPAVYTCVDDLCRGYDLTRLSYGRSIFTEHVLGFELVPPSLFNVVVAIRNEATRTNRAVRLPVSTAAAPEGITLFYGLYNAVKEFCLRHQLDPPLLRHLDKYYAGLPPELKQTRVNLPAHSRYGPQAVDAR
As to B1, the binding result is on record as “binds”.

The values are drawn from US20180271975A1 (MODERNATX, published 2018).
